Reference: patent publication US20200048331A1 (CANIMGUIDE THERAPEUTICS, published 2020)
Where no end group is shown, it is not given here. The star is where a group is joined. Cam = NC(=O)C*

B1: synthesized albumin peptide 2605 NEETFLKKYLYE (peptide)
peptide: NEETFLKKYLYE
notes: Synthetic (CSBio); also called E5K peptide 2605
B2: synthesized albumin peptide 2606 KLDELRDEGKAS (peptide)
peptide: KLDELRDEGKAS
notes: Synthetic (CSBio); also called E5K peptide 2606

Target: T1, LFA-1 (CD11a) on immune cells (human, UniProt P20701 26-1170; P05107 23-769)
T1 construct: whole, on cells; On acetone-fixed cytospin preparations of human PBMC or THP-1 cells; also called β2-integrin
Assay: effect of peptide pre-incubation on HI111 staining of LFA-1 on PBMC cytospins

T1 sequence (P20701 26-1170, chain 1 of 2): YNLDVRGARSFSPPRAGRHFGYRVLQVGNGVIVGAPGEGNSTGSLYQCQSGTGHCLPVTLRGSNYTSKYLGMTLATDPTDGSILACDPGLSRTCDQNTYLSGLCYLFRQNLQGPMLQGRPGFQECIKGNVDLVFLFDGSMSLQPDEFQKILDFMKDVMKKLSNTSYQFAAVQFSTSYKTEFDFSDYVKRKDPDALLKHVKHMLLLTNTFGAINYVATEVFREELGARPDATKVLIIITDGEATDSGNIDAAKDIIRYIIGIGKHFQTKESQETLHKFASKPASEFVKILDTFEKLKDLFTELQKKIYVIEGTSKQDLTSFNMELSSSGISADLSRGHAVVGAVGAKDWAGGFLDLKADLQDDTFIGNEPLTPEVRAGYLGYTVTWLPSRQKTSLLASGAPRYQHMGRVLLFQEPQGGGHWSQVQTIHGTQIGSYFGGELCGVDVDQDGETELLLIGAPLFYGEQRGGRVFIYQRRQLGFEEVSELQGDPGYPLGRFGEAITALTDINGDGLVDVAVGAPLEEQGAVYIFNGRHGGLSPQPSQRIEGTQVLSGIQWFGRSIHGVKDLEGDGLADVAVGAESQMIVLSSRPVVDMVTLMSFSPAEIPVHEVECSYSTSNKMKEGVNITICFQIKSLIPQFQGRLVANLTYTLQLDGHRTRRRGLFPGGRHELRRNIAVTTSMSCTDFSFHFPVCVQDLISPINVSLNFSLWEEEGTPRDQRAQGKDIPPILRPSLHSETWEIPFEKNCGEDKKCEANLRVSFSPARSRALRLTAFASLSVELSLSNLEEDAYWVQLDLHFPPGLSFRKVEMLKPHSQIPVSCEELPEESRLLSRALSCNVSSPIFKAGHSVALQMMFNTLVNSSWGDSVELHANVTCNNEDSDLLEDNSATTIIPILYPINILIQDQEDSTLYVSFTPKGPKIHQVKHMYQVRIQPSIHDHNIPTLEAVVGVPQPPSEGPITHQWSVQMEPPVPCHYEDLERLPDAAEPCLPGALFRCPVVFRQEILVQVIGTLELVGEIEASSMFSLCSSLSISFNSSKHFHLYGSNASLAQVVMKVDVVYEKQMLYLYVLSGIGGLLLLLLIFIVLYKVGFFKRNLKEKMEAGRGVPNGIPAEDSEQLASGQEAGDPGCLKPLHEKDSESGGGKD
T1 sequence (P05107 23-769, chain 2 of 2): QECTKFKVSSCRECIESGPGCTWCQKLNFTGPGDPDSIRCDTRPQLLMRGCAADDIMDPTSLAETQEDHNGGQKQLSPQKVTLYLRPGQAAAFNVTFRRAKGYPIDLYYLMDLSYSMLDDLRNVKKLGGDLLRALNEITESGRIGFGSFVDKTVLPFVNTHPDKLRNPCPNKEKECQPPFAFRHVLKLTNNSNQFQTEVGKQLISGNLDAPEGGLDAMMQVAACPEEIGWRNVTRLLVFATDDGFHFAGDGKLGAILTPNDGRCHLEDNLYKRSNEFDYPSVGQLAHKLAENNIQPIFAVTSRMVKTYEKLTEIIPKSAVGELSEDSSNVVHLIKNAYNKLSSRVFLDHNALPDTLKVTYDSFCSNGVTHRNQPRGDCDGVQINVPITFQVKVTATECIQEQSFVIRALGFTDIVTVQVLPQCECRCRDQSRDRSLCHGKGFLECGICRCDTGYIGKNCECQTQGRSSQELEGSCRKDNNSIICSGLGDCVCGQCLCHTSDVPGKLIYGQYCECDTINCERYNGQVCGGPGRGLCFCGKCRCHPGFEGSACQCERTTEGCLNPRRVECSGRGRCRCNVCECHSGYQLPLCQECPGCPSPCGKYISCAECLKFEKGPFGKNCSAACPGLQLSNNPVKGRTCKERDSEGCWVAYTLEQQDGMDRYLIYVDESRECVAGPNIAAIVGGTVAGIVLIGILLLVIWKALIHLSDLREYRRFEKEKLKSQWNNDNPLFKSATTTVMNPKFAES

Row | binding result | Molecule
1 | binds | B1

Target: T1, LFA-1 (CD11a) on immune cells
Assay: effect of peptide pre-incubation on HI111 staining of LFA-1 on PBMC and THP-1 cytospins

Row | binding result | Molecule
2 | binds | B2

Target: artificial cell surface (ACS): biotinylated cell surface proteins from human mononuclear blood cells coupled to streptavidin-sepharose
Assay: ACS affinity column adsorption of ASP-N dHSA peptides (700-3600 Da), MALDI-TOF ms

Row | Per cent adsorbed (per cent adsorbed, printed as fraction) | Molecule
3 | 1 | DDKETC(Cam)FAEEGKKLVAASQAALGL [HSA ASP-N peptide residues 586-609 …]
4 | 0.86 | DETYVPKEFNAETFTHA [HSA ASP-N peptide residues 518-535 …]
5 | 0.65 | DSISSKLKEC(Cam)C(Cam)EKPLLEKSHC(Cam)IAEVEN [HSA ASP-N peptide residues 293-319 …]
6 | 1 | DHVKLVNEVTEFAKTC(Cam)VA [HSA ASP-N peptide residues 62-79 …]
7 | 0.87 | DRVTKC(Cam)C(Cam)TESLVNRRPC(Cam)FSALEV [HSA ASP-N peptide residues 495-517 …]
8 | 0.65 | DKLC(Cam)TVATLRETYGEM [HSA ASP-N peptide residues 96-112 …]

Target: artificial cell surface (ACS): biotinylated cell surface proteins from human mononuclear blood cells coupled to streptavidin-sepharose
Assay: ACS affinity column adsorption of tryptic dHSA peptides, MALDI-TOF ms; second of two lines for this peptide

Row | Per cent adsorbed (per cent adsorbed, printed as fraction) | Molecule
9 | 0.18 | QEPERNEC(Cam)FLQHK [HSA tryptic peptide residues 118-130 …]

Target: T1, LFA-1 (CD11a) on immune cells
Assay: inferred from modulation of HI111 staining of LFA-1 on mononuclear blood cells

Row | binding result | Molecule
10 | binds | VFDEFKPLVEEPQNLIK (Synthetic (CSBio); also called 80) [synthesized albumin peptide 3028 VFDEFKPLVEEPQNLIK]

Target: artificial cell surface (ACS): biotinylated cell surface proteins from human mononuclear blood cells coupled to streptavidin-sepharose
Assay: ACS affinity column adsorption of ASP-N dHSA peptides (3200-9000 Da), MALDI-TOF ms

Row | Per cent adsorbed (per cent adsorbed, printed as fraction) | Molecule
11 | 1 | HSA ASP-N peptide residues 96-130 …
12 | 0.37 | YLSVVLNQLC(Cam)VLHEKTPVSDRVTKC(Cam)C(Cam)TESLVNRRPC(Cam)FSALEV [HSA ASP-N peptide residues 475-517 …]
13 | 1 | YSVVLLLRLAKTYETTLEKC(Cam)C(Cam)AAADPHEC(Cam)YAKVF [HSA ASP-N peptide residues 364-398 …]
14 | 1 | RVTKC(Cam)C(Cam)TESLVNRRPC(Cam)FSALEVDETYVPKEFNAETFTFHA [HSA ASP-N peptide residues 495-535 …]
15 | 1 | VFLGMFLYEYARRHPDYSVVLLLRLAKTYETTLEKC(Cam)C(Cam)AAA [HSA ASP-N peptide residues 348-388 …]
16 | 1 | LGEENFKALVLIAFAQYLQQC(Cam)PFEDHVKLVNEVTEFAKTC(Cam)VA [HSA ASP-N peptide residues 37-79 …]
17 | 1 | IC(Cam)TLSEKERQIKKQTALVELVKHKPKATKEQLKAVM [HSA ASP-N peptide residues 536-572 …]
18 | 1 | LAKYIC(Cam)ENQDSISSKLKEC(Cam)C(Cam)EKPLLEKSHC(Cam)IAEVEN [HSA ASP-N peptide residues 283-319 …]

Target: artificial cell surface (ACS): biotinylated cell surface proteins from human mononuclear blood cells coupled to streptavidin-sepharose
Assay: ACS affinity column adsorption of tryptic dHSA peptides, MALDI-TOF ms

Row | Per cent adsorbed (per cent adsorbed, printed as fraction) | Molecule
19 | 0.59 | HSA tryptic peptide residues 439-452 …
20 | 0.64 | HSA tryptic peptide residues 438-452 …
21 | 0.36 | SLHTLFGDK [HSA tryptic peptide residues 089-097 …]
22 | 0.36 | LKEC(Cam)C(Cam)EKPLLEK [HSA tryptic peptide residues 299-310 …]
23 | 0.6 | KVFDEFKPLVEEPQNLIKQ [HSA tryptic peptide residues 397-413 …]
24 | 0.08 | FKDLGEENFK [HSA tryptic peptide residues 35-44 …]
25 | 0.01 | DDNPNLPR [HSA tryptic peptide residues 131-138 DDNPNLPR]
26 | -0.37 | YKAAFTEC(Cam)C(Cam)QAADK [HSA tryptic peptide residues 185-198 …]
27 | 0.42 | RPC(Cam)FSALEVDETYVPK [HSA tryptic peptide residues 509-524 …]
28 | 0.71 | KYLYEIAR [HSA tryptic peptide residues 161-168 KYLYEIAR]
29 | 0.26 | C(Cam)C(Cam)TESLVNR [HSA tryptic peptide residues 500-508 …]
30 | -0.08 | ETYGEMADC(Cam)C(Cam)AK [HSA tryptic peptide residues 106-117 …]
31 | 0.29 | AAFTEC(Cam)C(Cam)QAADK [HSA tryptic peptide residues 187-198 …]
32 | 0.41 | FQNALLVR [HSA tryptic peptide residues 427-434 FQNALLVR]
33 | 0.13 | VHTEC(Cam)C(Cam)HGDLLEC(Cam)ADDR [HSA tryptic peptide residues 265-281 …]
34 | 0.2 | QNC(Cam)ELFEQLGEYK [HSA tryptic peptide residues 414-426 …]
35 | 0.34 | YLYEIAR [HSA tryptic peptide residues 162-168 YLYEIAR]
36 | 0.23 | AVMDDFAAFVEK [HSA tryptic peptide residues 570-581 …]
37 | 0.03 | YIC(Cam)ENQDSISSK [HSA tryptic peptide residues 287-298 …]
38 | 0.02 | LDELRDEGK [HSA tryptic peptide residues 206-214 …]
39 | 0.22 | NECFLQHK (Cys alkylated with iodoacetamide (from dHSA)) [HSA tryptic peptide residues 123-130 NECFLQHK]
40 | 0.35 | LCTVATLR (Cys alkylated with iodoacetamide (from dHSA)) [HSA tryptic peptide residues 098-105 LCTVATLR]
41 | 0.32 | C(Cam)C(Cam)AAADPHEC(Cam)YAK [HSA tryptic peptide residues 384-396 …]
42 | -0.02 | LVNEVTEFAK [HSA tryptic peptide residues 066-075 …]

Target: artificial cell surface (ACS): biotinylated cell surface proteins from human mononuclear blood cells coupled to streptavidin-sepharose
Assay: ACS affinity column adsorption of tryptic dHSA peptides, MALDI-TOF ms; first of two lines for this peptide

Row | Per cent adsorbed (per cent adsorbed, printed as fraction) | Molecule
43 | 0.26 | QEPERNEC(Cam)FLQHK [HSA tryptic peptide residues 118-130 …]
